Drawing on paper PMC4523182, “Biochemical Characterization of a Mycobacteriophage Derived DnaB Ortholog Reveals New Insight into the Evolutionary Origin of DnaB Helicases”, this text covers stoichiometry N and Kd for four molecules.

Data set [1] deals with Wildcat Gp80 (mycobacteriophage Wildcat). Briefly: SEC; analytical Superose 6 10/300 GL, FPLC, 0.4 ml/min, 40 mM Tris-HCl pH 7.5, 50 mM KCl, 2 mM DTT; Mw from a standard curve (thyroglobulin, beta-amylase, BSA, ovalbumin, cytochrome C).
For data set [2] the target is unchanged. The data set is described as follows: dynamic light scattering; higher protein concentrations (1 uM unless otherwise stated), 50 mM Tris-HCl pH 8.0, 50 mM KCl, 2 mM DTT, 1 mM MgCl2, 25°C; weight average hydrodynamic radius; no cofactor; oligomer also kept with 4 mM AMP-PNP and with 4 mM ATP plus 24 uM 41 mer ssDNA.
Data set [3] concerns the target T1, WCGp80 (Wildcat Gp80, DnaB-type helicase) (Mycobacteriophage Wildcat, UniProt Q19XY0 1-441).
T1 sequence: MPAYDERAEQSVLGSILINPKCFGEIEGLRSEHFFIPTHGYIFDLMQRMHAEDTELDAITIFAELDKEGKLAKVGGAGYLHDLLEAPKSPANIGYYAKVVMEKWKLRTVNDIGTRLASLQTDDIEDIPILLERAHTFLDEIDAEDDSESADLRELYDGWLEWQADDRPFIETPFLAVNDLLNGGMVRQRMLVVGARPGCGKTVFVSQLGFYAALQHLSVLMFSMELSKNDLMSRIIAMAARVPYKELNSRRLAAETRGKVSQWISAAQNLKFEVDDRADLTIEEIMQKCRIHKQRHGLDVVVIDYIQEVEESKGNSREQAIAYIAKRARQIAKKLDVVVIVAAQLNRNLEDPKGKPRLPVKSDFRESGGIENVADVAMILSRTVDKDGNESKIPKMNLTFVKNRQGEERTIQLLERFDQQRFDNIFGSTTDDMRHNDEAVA
The data set is described as follows: fluorescence polarization; one-site non-cooperative fit; Binding buffer, pH and temperature not given in the material; Trp quenching ex 280/em 340 nm (helicase assay buffer E: 50 mM Tris-HCl pH 8.0, 50 mM KCl, 2 mM DTT, 0.25 mg/ml BSA, 4 mM MgCl2, 4 mM ATP, 4% sucrose, 37 C). Conditions: protein: recombinant; tags: N-terminal His6 (pQE30); chain copies: 6; label: 5' 6-FAM on oligo 2; fork 20 bp stem; 40 nt 5' tail on oligo1 and 40 nt 3' tail on oligo2.

The target of data set [4] is T1, WCGp80 (Wildcat Gp80, DnaB-type …). Briefly: tryptophan fluorescence quenching; 40 nM protein; S6 Fig legend gives 152 nM; Binding buffer, pH and temperature not given in the material; Trp quenching ex 280/em 340 nm (helicase assay buffer E: 50 mM Tris-HCl pH 8.0, 50 mM KCl, 2 mM DTT, 0.25 mg/ml BSA, 4 mM MgCl2, 4 mM ATP, 4% sucrose, 37 C). To be noted: protein: recombinant; tags: N-terminal His6 (pQE30); chain copies: 6; single strand.

Data set [5] shares this target. The data set is described as follows: tryptophan fluorescence quenching; 40 nM protein; S6 Fig legend gives 56.44 nM; Binding buffer, pH and temperature not given in the material; Trp quenching ex 280/em 340 nm (helicase assay buffer E: 50 mM Tris-HCl pH 8.0, 50 mM KCl, 2 mM DTT, 0.25 mg/ml BSA, 4 mM MgCl2, 4 mM ATP, 4% sucrose, 37 C). Conditions: protein: recombinant; tags: N-terminal His6 (pQE30); chain copies: 6; single strand.

On to Wildcat Gp80 (enzyme), for which the stoichiometry N in data set [1] and in data set [2] was 6 each time.

B1: fork substrate (oligo1/oligo2) (mixed)
DNA 1: GCCCTGATCACGGTACTCGGTTTTTTTTTTTTTTTTTTTTGGCTCCTCTAGACTCGACCG
DNA 2: CGGTCGAGTCTAGAGGAGCCTTTTTTTTTTTTTTTTTTTTTTTTTTTTTTTTTTTTTTTT
In the case of B1, in data set [3], the Kd (commonly the free concentration of one partner at which half of the binding sites on the other are occupied at equilibrium, for simple one-to-one binding) is 9.5 nM.

B2: 60-mer (oligo2) (ssDNA)
DNA: B1 DNA 2
For the molecule B2, in data set [4], the Kd is 164 nM.

Turning to TCGAGCTCGGTACCCGGGGATCCTCTAGAGTCGACCTGCAGG (ssDNA) [41-mer], the Kd in data set [5] stood at 58 nM.
